# Values quoted from earlier work in publication PMC11820047.
# Where two headings read alike, the source gives them in different places.
# Legend:
# EGFR (Homo sapiens) [1] = molecular target: EGFR (Homo sapiens) (UniProt P00533)
# EGFR (Homo sapiens) [2] = molecular target: EGFR (Homo sapiens) (UniProt P00533); remark: listed apart in the source
Kd (EGFR (Homo sapiens) [1]) [µM],Substance,Kd (EGFR (Homo sapiens) [2]) [µM]
0.002,EGF (from UniProt P01133),
,GE11,0.022
